Measured values as given in article PMC11496786.

Key:
[1] = target: mutant outer-arm dynein (OAD) of the Chlamydomonas mutant 214 (oda6E279K), carrying IC2 E279K (Chlamydomonas reinhardtii (endogenous in flagellar axonemes)) (UniProt Q39610)
[2] = target: wild-type outer-arm dynein (OAD) of Chlamydomonas (Chlamydomonas reinhardtii (endogenous in flagellar axonemes)) (UniProt Q39610)

Row | microtubule sliding speed in microtubule bundles formed with OAD, on perfusion with 1 mM ATP [1] [μm/sec] | microtubule sliding speed in microtubule bundles formed with OAD, on perfusion with 1 mM ATP [2] [μm/sec] | Substance
1 | 4.3 | – | mutant outer-arm dynein (OAD) of the Chlamydomonas mutant 214 (oda6E279K), carrying IC2 E279K (from UniProt Q39610 1-4499; Q39565 1-4568; Q39575 1-4485; Q39578 1-683; P27766 1-567) (complex)
2 | – | 35.3 | wild-type outer-arm dynein (OAD) of Chlamydomonas (from UniProt Q39610 1-4499; Q39565 1-4568; Q39575 1-4485; Q39578 1-683; P27766 1-567) (complex)
